Target: CTLA4 (UniProt P16410 36-161, limits assumed)
Assay: Octet BLI, antigen immobilized, B-Body as analyte
From the text: In each instance, the antigen is immobilized and the B-Body is the analyte.

Sequence of CTLA4 (P16410 36-161 limits assumed): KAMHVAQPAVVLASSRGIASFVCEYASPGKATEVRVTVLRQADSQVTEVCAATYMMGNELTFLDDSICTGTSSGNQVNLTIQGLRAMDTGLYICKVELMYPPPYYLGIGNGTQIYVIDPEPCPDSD

B1: bivalent bispecific B-Body "BC1" (bispecific antibody)
chain 1: not shown
chain 2: EVQLVESGGGLVQPGGSLRLSCAASGFTFSDYDIHWVRQAPGKGLEWVGDITPYDGTTNYADSVKGRFTISADTSKNTAYLQMNSLRAEDTAVYYCARLVGEIATGFDYWGQGTLVTVSSASPREPQVYTDPPSRDELTKNQVSLTCLVKGFYPSDIAVEWESNGQPENNYKTTPPVLDSDGSFFLYSKLTVDKSRWQQGNVFSCSVMHEALHNHYTQKSLSLSGEC
chain 3: not shown
chain 4: QVQLVESGGGVVQPGRSLRLDCKASGITFSNSGMHWVRQAPGKGLEWVAVIWYDGSKRYYADSVKGRFTISRDNSKNTLFLQMNSLRAEDTAVYYCATNDDYWGQGTLVTVSSASTKGPSVFPLAPSSKSTSGGTAALGCLVKDYFPEPVTVSWNSGALTSGVHTFPAVLQSSGLYSLSSVVTVPSSSLGTQTYICNVNHKPSNTKVDKKVEPPKSC
notes: Specific for PD1 (nivolumab variable regions) and Antigen A; four different chains, one of each; also called bivalent 1×1 bispecific construct BC1
binding result: no binding
